{
  "source": "paper doi:10.64898/2026.08.21.746223",
  "key": {"[1]": {"molecular_target": "PelC (P. aeruginosa PAO1, PA3062), outer membrane lipoprotein (Pseudomonas aeruginosa PAO1)", "assay": "cryo-EM structure"}, "[2]": {"molecular_target": "PelC (P. aeruginosa PAO1, PA3062), outer membrane lipoprotein (Pseudomonas aeruginosa PAO1)", "assay": "cryo-EM structure", "remark": "listed apart in the source"}},
  "note": "Where two headings read alike, the source gives them in different places.",
  "data": [
    {"substance": "PelC (P. aeruginosa PAO1, PA3062), outer membrane lipoprotein (natural protein)", "values": [
      {"measurement": "stoichiometry N", "setting": "[1]", "value": 12},
      {"measurement": "stoichiometry N", "setting": "[2]", "value": 12}
    ]}
  ]
}
